B1: sRAGE–Ig fusion protein lacking C2-domain (Fc fusion, human, UniProt Q15109 28-231, looked up)
chain: ARIGEPLVLKCKGAPKKPPQRLEWKLNTGRTEAWKVLSPQGGGPWDSVARVLPNGSLFLPAVGIQDEGIFRCQAMNRNGKETKSNYRVRVYQIPGKPEIVDSASELTAGVPNKVGTCVSEGSYPAGTLSWHLDGKPLVPNEKGVSVKEQTRRHPETGLFTLQSELMVTPARGGDPRPTFSCSFSPGLPRHRALRTAPIQPRVWE
notes: RAGE, human, extracellular part without the C2-domain, amino acids 28–231; also called delta C2; source: Drosophila S2 cells, purified (protein A-agarose chromatography)
B2: RAGE V1-domain Ig-fusion protein (Fc fusion, human, UniProt Q15109 28-119, looked up)
chain: ARIGEPLVLKCKGAPKKPPQRLEWKLNTGRTEAWKVLSPQGGGPWDSVARVLPNGSLFLPAVGIQDEGIFRCQAMNRNGKETKSNYRVRVYQ
notes: RAGE, human, V1-domain, amino acids 28–119; also called V1–Ig; RAGE V1–Fc; source: Drosophila S2 cells, purified (protein A-agarose chromatography)
B3: sRAGE–Ig fusion protein lacking C1-domain (Fc fusion, human, UniProt Q15109 28-331, looked up)
chain: ARIGEPLVLKCKGAPKKPPQRLEWKLNTGRTEAWKVLSPQGGGPWDSVARVLPNGSLFLPAVGIQDEGIFRCQAMNRNGKETKSNYRVRVYQPVPLEEVQLVVEPEGGAVAPGGTVTLTCEVPAQPSPQIHWMKDGVPLPLPPSPVLILPEIGPQDQGTYSCVATHSSHGPQESRAVSISIIEPGEEGPTAG
notes: RAGE, human, extracellular part without the C1-domain, amino acids 28–119 + 232–331; also called delta C1; source: Drosophila S2 cells, purified (protein A-agarose chromatography)

Target: the molecule itself
Assay: bead aggregation assay; monomeric fluorescent protein A coated beads incubated with 10 μg/mL of the Ig-fusion proteins, no other exogenous ligands; aggregation followed by fluorescence microscopy, index Nt/N0, pictures after 60 min

Binding result, binds:
B1
B2
B3

— paper PMC6165534, “Inhibition of Homophilic Interactions and Ligand Binding of the Receptor for Advanced Glycation End Products by Heparin and Heparin-Related Carbohydrate Structures” (Medicines, 2018)
